Bridge positions count the residues as written; N and C are the ends. Square brackets hold non-standard residues; d marks the D form. Ends that are not written are not given here. S5 = C=CCCC[C@](C)(N)C(=O)O

Sequences and labels used below:
B1: polypeptide MR2 (peptide)
peptide: HLMACFTCAKKLKKR
notes: Synthetic unmodified 15-mer; also called MR2 polypeptide

The target of the assay is T1, Purified TRB3 protein (purchased from RD) (UniProt Q96RU7 1-358, limits assumed).
T1 construct: Amine-coupled to the Biacore chip; also called Tribbles Homologue 3
T1 sequence (looked up): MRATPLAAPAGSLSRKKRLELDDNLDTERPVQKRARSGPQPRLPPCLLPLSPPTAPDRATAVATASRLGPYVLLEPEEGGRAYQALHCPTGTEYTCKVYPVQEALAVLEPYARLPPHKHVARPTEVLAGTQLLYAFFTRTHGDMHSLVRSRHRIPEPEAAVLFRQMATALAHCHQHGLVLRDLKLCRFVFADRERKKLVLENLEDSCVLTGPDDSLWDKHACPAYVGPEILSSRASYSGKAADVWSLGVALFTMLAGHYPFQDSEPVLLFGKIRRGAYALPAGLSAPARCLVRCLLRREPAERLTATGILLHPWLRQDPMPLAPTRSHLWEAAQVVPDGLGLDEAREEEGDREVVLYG
The assay can be described thus: SPR, Biacore T200, TRB3 amine-coupled to chip, peptide as analyte, 25° C. On the procedure:
The surface plasmon resonance experiment was carried out in a surface plasmon resonator Biacore T200, and the procedure was carried out in accordance with the instructions of the plasma resonator Biacore T200. Specific steps are as follows:
1. Purified TRB3 protein (purchased from RD) was coupled to a CMS chip (purchased from GE) by amidogen, and the unbound protein was eluted at a flow rate of 10 μL/min. The surface of the chip was equilibrated for 2 hours. Among them, the specific steps of amidogen coupling, elution and equilibration refer to the relevant instruction of GE's CMS chip.
2. […] The buffer used was HBS-EP buffer [0.01 M HEPES, 0.15 M NaCl, 3 mM EDTA and 0.005% (w/w) surfactant TWEEN20]. Biacore T200's built-in analysis software was used to simulate the binding curves of different concentrations of peptides to TRB3. FIG. 4-1, 4-2 and Table 1 illustrate that peptides MR2, S1, S2, S3, S4, S5, S6, S7, S8, S9, S10 and S11 can all interacted with the TRB3 protein.
For orientation: In SPR one partner is held on a chip, and binding of the other changes the refractive index at the surface.
A word on the Kd: it is the equilibrium constant for the complex coming apart. Low readings indicate higher affinity, high ones lower affinity. HLMACF[S5]CAK[S5]LKKR (staple 7-11; cysteine pairing not given here, Stapled variant of MR2) [polypeptide S7] came in with a Kd of 8.95 nM. That is a single-digit nanomolar value.
As for HLMA[S5]FTC[S5]KKLKKR (staple 5-9, Stapled variant of MR2) [polypeptide S5], the dissociation constant (Kd) worked out at 11.5 nM.
Under HLMACFTCA[S5]KLK[S5]R (staple 10-14; cysteine pairing not given here, Stapled variant of MR2) [polypeptide S10] stands 29.3 nM; under HLMACFTCAK[S5]LKK[S5] (staple 11-15; cysteine pairing not given here, Stapled variant of MR2) [polypeptide S11], 37.7 nM.
As for HLM[S5]CFT[S5]AKKLKKR (staple 4-8, Stapled variant of MR2) [polypeptide S4], the affinity, expressed as Kd, was 9.63 nM.
As to HLMACFT[S5]AKK[S5]KKR (staple 8-12, Stapled variant of MR2) [polypeptide S8], binding was put at a Kd of 35.9 nM.
Regarding HL[S5]ACF[S5]CAKKLKKR (staple 3-7; cysteine pairing not given here, Stapled variant of MR2) [polypeptide S3], the Kd was found to be 42.7 nM. The Kd values of the last two molecules are within 1.5-fold of each other.
For the molecule [S5]LMA[S5]FTCAKKLKKR (staple 1-5, Stapled variant of MR2) [polypeptide S1], binding was put at a Kd of 20.2 nM.
In the case of H[S5]MAC[S5]TCAKKLKKR (staple 2-6; cysteine pairing not given here, Stapled variant of MR2) [polypeptide S2] it was 19.1 nM; in that of B1, 43.3 nM; in that of HLMACFTC[S5]KKL[S5]KR (staple 9-13; cysteine pairing not given here, Stapled variant of MR2) [polypeptide S9], 37.1 nM.
In the case of HLMAC[S5]TCA[S5]KLKKR (staple 6-10; cysteine pairing not given here, Stapled variant of MR2) [polypeptide S6] it was 49.6 nM.

Values taken from patent US20210179680A1, “POLYPEPTIDE, DERIVATIVES THEREOF, AND APPLICATION THEREOF IN PREPARATION OF DRUGS HAVING RESISTANCE TO PULMONARY FIBROSIS” (priority 2016, published 2021).
